From patent publication US8461305B2, “L-fucose α1→6 specific lectin” (J-Oil Mills, Inc., priority 2008, dated 2013)

How the values were obtained:
[1] = frontal affinity chromatography (FAC), association constant to PA sugar chains without L-fucose; assay type: binding; conditions: 25 degrees C.
Summary of the method: (§1)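 Lectin coupled via primary amines to NHS-activated sepharose in a miniature column, run in TBS (pH 7.4) at 0.125 ml/min and 25 degrees C. PA sugar chains (3.75 nM or 7.5 nM) applied in excess, with elution monitored by fluorescence (ex 310/em 380 nm). Ka calculated from front-end delay (V−Vo) versus PA rhamnose and effective ligand amount (Bt).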

[2] = frontal affinity chromatography (FAC), association constant to PA sugar chains having α1→6 L-fucose; assay type: binding; conditions: 25 degrees C.
Summary of the method: as §1

B1: Aleuria aurantia lectin (protein)
chain: PTEFLYTSKIAAISWAATGGRQQRVYFQDLNGKIREAQRGGDNPWTGGSSQNVIGEAKLFSPLAAVTWKSAQGIQIRVYCVNKDNILSEFVYDGSKWITGQLGSVGVKVGSNSKLAALQWGGSESAPPNIRVYYQKSNGSGSSIHEYVWSGKWTAGASFGSTVPGTGIGATAIGPGRLRIYYQATDNKIREHCWDSNSWYVGGFSASASAGVSIAAISWGSTPNIRVYWQKGREELYEAAYGGSWNTPGQIKDASRPTPSLPDTFIAANSSGNIDISVFFQASGVSLQQWQWISGKGWSIGAVVPTGTPAGW
association constant Ka ([1]; Sugar chain No. 001): <1000 M⁻¹ | association constant Ka ([1]; Sugar chain No. 002): <1000 M⁻¹ | association constant Ka ([1]; Sugar chain No. 003): <1000 M⁻¹ | association constant Ka ([1]; Sugar chain No. 004): <1000 M⁻¹ | association constant Ka ([1]; Sugar chain No. 005): <1000 M⁻¹ | association constant Ka ([1]; Sugar chain No. 006): <1000 M⁻¹ | association constant Ka ([1]; Sugar chain No. 007): <1000 M⁻¹ | association constant Ka ([1]; Sugar chain No. 008): <1000 M⁻¹ | association constant Ka ([1]; Sugar chain No. 009): <1000 M⁻¹ | association constant Ka ([1]; Sugar chain No. 010): <1000 M⁻¹ | association constant Ka ([1]; Sugar chain No. 011): <1000 M⁻¹ | association constant Ka ([1]; Sugar chain No. 012): <1000 M⁻¹ | association constant Ka ([1]; Sugar chain No. 013): <1000 M⁻¹ | association constant Ka ([1]; Sugar chain No. 014): <1000 M⁻¹ | association constant Ka ([1]; Sugar chain No. 101): <1000 M⁻¹ | association constant Ka ([1]; Sugar chain No. 103): <1000 M⁻¹ | association constant Ka ([1]; Sugar chain No. 104): <1000 M⁻¹ | association constant Ka ([1]; Sugar chain No. 105): <1000 M⁻¹ | association constant Ka ([1]; Sugar chain No. 107): <1000 M⁻¹ | association constant Ka ([1]; Sugar chain No. 108): <1000 M⁻¹ | association constant Ka ([1]; Sugar chain No. 301): <1000 M⁻¹ | association constant Ka ([1]; Sugar chain No. 304): <1000 M⁻¹ | association constant Ka ([1]; Sugar chain No. 305): <1000 M⁻¹ | association constant Ka ([1]; Sugar chain No. 307): <1000 M⁻¹ | association constant Ka ([1]; Sugar chain No. 308): <1000 M⁻¹ | association constant Ka ([1]; Sugar chain No. 313): <1000 M⁻¹ | association constant Ka ([1]; Sugar chain No. 314): <1000 M⁻¹ | association constant Ka ([1]; Sugar chain No. 323): <1000 M⁻¹ | association constant Ka ([1]; Sugar chain No. 501): <1000 M⁻¹ | association constant Ka ([1]; Sugar chain No. 502): <1000 M⁻¹ | association constant Ka ([1]; Sugar chain No. 503): <1000 M⁻¹ | association constant Ka ([1]; Sugar chain No. 504): <1000 M⁻¹ | association constant Ka ([1]; Sugar chain No. 701): <1000 M⁻¹ | association constant Ka ([1]; Sugar chain No. 702): <1000 M⁻¹ | association constant Ka ([1]; Sugar chain No. 703): <1000 M⁻¹ | association constant Ka ([1]; Sugar chain No. 704): <1000 M⁻¹ | association constant Ka ([1]; Sugar chain No. 705): <1000 M⁻¹ | association constant Ka ([1]; Sugar chain No. 706): <1000 M⁻¹ | association constant Ka ([1]; Sugar chain No. 707): <1000 M⁻¹ | association constant Ka ([1]; Sugar chain No. 708): <1000 M⁻¹ | association constant Ka ([1]; Sugar chain No. 709): <1000 M⁻¹ | association constant Ka ([1]; Sugar chain No. 710): <1000 M⁻¹ | association constant Ka ([1]; Sugar chain No. 711): <1000 M⁻¹ | association constant Ka ([1]; Sugar chain No. 712): <1000 M⁻¹ | association constant Ka ([1]; Sugar chain No. 713): <1000 M⁻¹ | association constant Ka ([1]; Sugar chain No. 715): <1000 M⁻¹ | association constant Ka ([1]; Sugar chain No. 716): <1000 M⁻¹ | association constant Ka ([1]; Sugar chain No. 717): <1000 M⁻¹ | association constant Ka ([1]; Sugar chain No. 724): <1000 M⁻¹ | association constant Ka ([1]; Sugar chain No. 725): <1000 M⁻¹ | association constant Ka ([1]; Sugar chain No. 728 (as listed in Table 7)): <1000 M⁻¹ | association constant Ka ([1]; Sugar chain No. 732): <1000 M⁻¹ | association constant Ka ([1]; Sugar chain No. 733): <1000 M⁻¹ | association constant Ka ([1]; Sugar chain No. 734): <1000 M⁻¹ | association constant Ka ([1]; Sugar chain No. 735): <1000 M⁻¹ | association constant Ka ([1]; Sugar chain No. 736): <1000 M⁻¹ | association constant Ka ([1]; Sugar chain No. 737): <1000 M⁻¹ | association constant Ka ([1]; Sugar chain No. 738): <1000 M⁻¹ | association constant Ka ([1]; Sugar chain No. 901): <1000 M⁻¹ | association constant Ka ([1]; Sugar chain No. 902): <1000 M⁻¹ | association constant Ka ([1]; Sugar chain No. 903): <1000 M⁻¹ | association constant Ka ([1]; Sugar chain No. 905): <1000 M⁻¹ | association constant Ka ([1]; Sugar chain No. 906): <1000 M⁻¹ | association constant Ka ([1]; Sugar chain No. 907): <1000 M⁻¹ | association constant Ka ([2]; Sugar chain No. 015): 91000 M⁻¹ | association constant Ka ([2]; Sugar chain No. 201): 51000 M⁻¹ | association constant Ka ([2]; Sugar chain No. 202): 54000 M⁻¹ | association constant Ka ([2]; Sugar chain No. 203): 66000 M⁻¹ | association constant Ka ([2]; Sugar chain No. 401): 55000 M⁻¹ | association constant Ka ([2]; Sugar chain No. 402): 11000 M⁻¹ | association constant Ka ([2]; Sugar chain No. 403): 52000 M⁻¹ | association constant Ka ([2]; Sugar chain No. 404): 65000 M⁻¹ | association constant Ka ([2]; Sugar chain No. 405): 56000 M⁻¹ | association constant Ka ([2]; Sugar chain No. 406): 47000 M⁻¹ | association constant Ka ([2]; Sugar chain No. 407): 45000 M⁻¹ | association constant Ka ([2]; Sugar chain No. 410): 38000 M⁻¹ | association constant Ka ([2]; Sugar chain No. 413): 32000 M⁻¹ | association constant Ka ([2]; Sugar chain No. 418): <1000 M⁻¹ | association constant Ka ([2]; Sugar chain No. 601): 61000 M⁻¹ | association constant Ka ([2]; Sugar chain No. 602): 52000 M⁻¹
